The source of these data is the Immune Epitope Database (IEDB).

Where only a bound is given, the exact number is not on record here.

Among the targets are HLA-A*31:01; HLA-A*03:01; HLA-A*33:01; HLA-A*68:01; HLA-A*11:01.
Assay in all cases: IEDB peptide-MHC binding, purified MHC/competitive/radioactivity; filed as Kd, often an IC50 or EC50 that approximates it; ≥ and ≤ were set here for values at or beyond the usual limits of such assays
Where [1] appears, read: source organism: Vaccinia virus WR.
Where [2] appears, read: source organism: Dengue virus 2 Jamaica/1409/1983.
The mark [3] stands for this setting: source organism: Mammarenavirus brazilense.
Setting [4] is: source organism: Lymphocytic choriomeningitis virus (strain Traub).
[5] abbreviates: source organism: Dengue virus 1 Brazil/97-11/1997.
The mark [6] stands for this setting: source organism: Dengue virus 3 Martinique/1243/1999.
Setting [7] is: source organism: SARS coronavirus Tor2.
[8] abbreviates: source organism: Dengue virus 4 Philippines/H241/1956.
[9] abbreviates: source organism: Dengue virus 1 Singapore/S275/1990.

Regarding IVQLPKRGVR, the Kd with HLA-A*31:01 (setting [1]) was 1230 nM; in the assay with HLA-A*03:01 (setting [1]) it was 15800 nM; with HLA-A*33:01 (setting [1]) it was 12500 nM; with HLA-A*68:01 (setting [1]), 19000 nM; with HLA-A*11:01 (setting [1]), at least 25700 nM.
Regarding IVSSVNMISR, the results for the Kd with HLA-A*33:01 (setting [2]) and in the assay with HLA-A*68:01 (setting [2]) were 88.5 nM and 16.2 nM, respectively.
Take KAKWLTPFEK: the Kd with HLA-A*31:01 (setting [1]) is 115 nM; with HLA-A*03:01 (setting [1]) it was 212 nM; with HLA-A*33:01 (setting [1]) it was at least 70000 nM; with HLA-A*68:01 (setting [1]), 11800 nM; in the assay with HLA-A*11:01 (setting [1]), 249 nM.
For KASTISWMMK, in that order: 88 nM, 45 nM, at least 50400 nM, 134 nM and 5.49 nM.
Turning to KCFEKFLEPK, the Kd in the assay with HLA-A*31:01 (setting [3]) was 1030 nM; in the assay with HLA-A*03:01 (setting [3]), 1270 nM; in the assay with HLA-A*33:01 (setting [3]), at least 23100 nM; with HLA-A*68:01 (setting [3]), 3470 nM; with HLA-A*11:01 (setting [3]), 16900 nM.
Regarding KCHDHYLCRH, the Kd in the assay with HLA-A*31:01 (setting [4]) was 9650 nM; in the assay with HLA-A*03:01 (setting [4]), at least 24800 nM; with HLA-A*33:01 (setting [4]), at least 70000 nM; in the assay with HLA-A*68:01 (setting [4]), at least 70100 nM; in the assay with HLA-A*11:01 (setting [4]), at least 69700 nM.
As for KIIHEWCCR, the Kd in the assay with HLA-A*31:01 (setting [5]) was at least 59300 nM.
For KSGGLSSGFY, the dissociation constant Kd with HLA-A*31:01 (setting [1]) was at least 70000 nM; with HLA-A*03:01 (setting [1]) it was 2570 nM; with HLA-A*33:01 (setting [1]), at least 70000 nM; with HLA-A*68:01 (setting [1]), at least 70200 nM; with HLA-A*11:01 (setting [1]) it was 5210 nM.
For KSLVSAGSGK, in the assay with HLA-A*03:01 (setting [6]), the Kd worked out at 3.41 nM.
As for KSTELIRRVR, the Kd with HLA-A*31:01 (setting [1]) is 15 nM; in the assay with HLA-A*03:01 (setting [1]) it was at least 70100 nM; with HLA-A*33:01 (setting [1]), 1930 nM; with HLA-A*68:01 (setting [1]) it was 901 nM; with HLA-A*11:01 (setting [1]), at least 20200 nM.
LIVSLCPTK: the Kd with HLA-A*31:01 (setting [1]) was determined as 14200 nM; in the assay with HLA-A*03:01 (setting [1]), 8400 nM; with HLA-A*33:01 (setting [1]), 1440 nM; with HLA-A*68:01 (setting [1]), 75.4 nM; with HLA-A*11:01 (setting [1]), 107 nM.
Take LLLFADINGK: the Kd in the assay with HLA-A*31:01 (setting [7]) is at least 24100 nM; with HLA-A*03:01 (setting [7]), 136 nM; with HLA-A*33:01 (setting [7]), 17200 nM; with HLA-A*68:01 (setting [7]), 9200 nM; with HLA-A*11:01 (setting [7]), 508 nM.
Consider LMHPDFCKNR, for which the equilibrium dissociation constant (Kd) is 16.9 nM in the assay with HLA-A*31:01 (setting [1]); 13600 nM in the assay with HLA-A*03:01 (setting [1]); 254 nM with HLA-A*33:01 (setting [1]); 8450 nM in the assay with HLA-A*68:01 (setting [1]); at least 24500 nM in the assay with HLA-A*11:01 (setting [1]).
With LMTLMKGASK, the Kd with HLA-A*03:01 (setting [8]) is 273 nM.
With LQGPPGTGK, the Kd is 1260 nM with HLA-A*31:01 (setting [7]); 459 nM in the assay with HLA-A*03:01 (setting [7]); at least 77700 nM with HLA-A*33:01 (setting [7]); 10900 nM with HLA-A*68:01 (setting [7]); 40.1 nM with HLA-A*11:01 (setting [7]).
For the sequence LQMAGVEVR, the dissociation constant (Kd) in the assay with HLA-A*31:01 (setting [1]) came out at 218 nM; with HLA-A*03:01 (setting [1]) it was 13900 nM; with HLA-A*33:01 (setting [1]), 6150 nM; with HLA-A*68:01 (setting [1]) it was 2380 nM; in the assay with HLA-A*11:01 (setting [1]), 5760 nM.
LTLFVEECLR: the Kd with HLA-A*33:01 (setting [8]) amounted to 60.7 nM; with HLA-A*68:01 (setting [8]), 56.2 nM.
Turning to MKNKAWMVHR, the Kd with HLA-A*31:01 (setting [6]) is 140 nM.
For MLDTSEKYSK, the Kd is at least 22300 nM with HLA-A*31:01 (setting [1]); 17300 nM with HLA-A*03:01 (setting [1]); at least 70000 nM with HLA-A*33:01 (setting [1]); 4320 nM in the assay with HLA-A*68:01 (setting [1]); 107 nM with HLA-A*11:01 (setting [1]).
With MLVYCFLGY, the Kd amounted to 907 nM with HLA-A*31:01 (setting [7]); 136 nM with HLA-A*03:01 (setting [7]); 7380 nM with HLA-A*33:01 (setting [7]); 1140 nM in the assay with HLA-A*68:01 (setting [7]); 120 nM with HLA-A*11:01 (setting [7]).
In the case of MSHLKVALYR, the dissociation constant Kd in the assay with HLA-A*31:01 (setting [1]) came out at 2.25 nM; with HLA-A*03:01 (setting [1]), 609 nM; in the assay with HLA-A*33:01 (setting [1]), 66.5 nM; with HLA-A*68:01 (setting [1]), 31.2 nM; in the assay with HLA-A*11:01 (setting [1]), 100 nM.
As for MSTYGWNLVR, the Kd in the assay with HLA-A*68:01 (setting [2]) worked out at 24.9 nM.
For the sequence NMLNIMNRR, the results for the Kd with HLA-A*31:01 (setting [9]) and with HLA-A*33:01 (setting [9]) were 5350 nM and 13.3 nM, respectively.
Turning to RIMQRGLLGR, the Kd with HLA-A*31:01 (setting [9]) is 1.16 nM; with HLA-A*03:01 (setting [9]), 5.56 nM.
As to RNKKPRICTR, the Kd with HLA-A*31:01 (setting [5]) was at least 70000 nM.
For SSKIRWIVER, the Kd in the assay with HLA-A*31:01 (setting [8]) was found to be 17.1 nM; in the assay with HLA-A*33:01 (setting [8]) it was 389 nM.
With SSMLNIMNR, the Kd in the assay with HLA-A*31:01 (setting [5]) is 11800 nM; in the assay with HLA-A*68:01 (setting [5]), 7.35 nM; in the assay with HLA-A*11:01 (setting [5]) it was 10.4 nM.
In the case of SYTQVCDHR, the equilibrium dissociation constant (Kd) with HLA-A*33:01 (source organism: Dengue virus 1 Nauru/West Pac/1974) stood at 43.2 nM.
On to TAASAAQRR, for which the Kd with HLA-A*68:01 (setting [6]) came to 24.9 nM.
Take TAMAFHLTTR: the Kd with HLA-A*31:01 (setting [2]) was 9.04 nM; with HLA-A*33:01 (setting [2]), 18.4 nM; with HLA-A*68:01 (setting [2]) it was 8.55 nM.
Take TAVAPSMTMR: the Kd in the assay with HLA-A*68:01 (setting [2]) came out at 18.8 nM.
Turning to TSADLTVEK, the Kd with HLA-A*68:01 (setting [6]) was 15.5 nM; with HLA-A*11:01 (setting [6]), 185 nM.
As to TSIFAGHLK, the Kd in the assay with HLA-A*68:01 (setting [6]) is 4.3 nM; in the assay with HLA-A*11:01 (setting [6]), 39.1 nM.
In the case of TTRLENIMWK, in the assay with HLA-A*11:01 (setting [8]), the dissociation constant (Kd) came out at 271 nM.
TTRLENVMWK: the dissociation constant Kd with HLA-A*11:01 (source organism: Dengue virus 4 Dominica/814669/1981) came to 590 nM.
In the case of VSIMIEEVMR, in the assay with HLA-A*68:01 (setting [5]), the Kd was found to be 202 nM.
As for VTCAMFTCKK, the Kd amounted to 86.7 nM with HLA-A*03:01 (setting [2]) and 97.7 nM in the assay with HLA-A*11:01 (setting [2]).

A word on the Kd: it is a measure of binding affinity in units of concentration.
